This is an account of results in publication PMC11678932, “A Signal-On Microelectrode Electrochemical Aptamer Sensor Based on AuNPs–MXene for Alpha-Fetoprotein Determination”.

This data set has as its target T1, alpha-fetoprotein (AFP) (UniProt P02771 19-609).
T1 sequence: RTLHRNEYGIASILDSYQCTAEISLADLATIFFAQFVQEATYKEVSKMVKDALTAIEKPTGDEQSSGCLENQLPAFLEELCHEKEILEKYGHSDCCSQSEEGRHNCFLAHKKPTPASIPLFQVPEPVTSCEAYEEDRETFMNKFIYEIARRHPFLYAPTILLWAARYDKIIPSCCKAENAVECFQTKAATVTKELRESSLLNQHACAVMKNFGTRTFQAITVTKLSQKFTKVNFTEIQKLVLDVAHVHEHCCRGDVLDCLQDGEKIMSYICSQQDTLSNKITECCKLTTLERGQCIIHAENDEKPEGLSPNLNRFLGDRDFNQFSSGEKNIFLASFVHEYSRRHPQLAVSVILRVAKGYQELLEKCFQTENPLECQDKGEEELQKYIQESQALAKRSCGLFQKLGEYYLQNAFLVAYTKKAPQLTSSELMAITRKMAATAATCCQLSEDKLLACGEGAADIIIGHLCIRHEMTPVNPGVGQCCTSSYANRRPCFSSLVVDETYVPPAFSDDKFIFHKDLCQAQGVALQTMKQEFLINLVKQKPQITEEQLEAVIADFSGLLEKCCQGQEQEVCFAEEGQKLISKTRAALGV
Nature of the data set: electrochemical aptasensor (DPV); signal-on; log-linear 1-300 ng/mL, LOD 0.05 ng/mL (not a Kd); Optimized: pH 7, 4 uM aptamer, 40 min aptamer and 30 min AFP incubation; PBS (0.01 M) listed as reagent; temperature not stated for binding. Particulars: protein: commercial; label: 3'-methylene blue.

B1: AFP aptamer (ssDNA)
DNA: GTGACGCTCCTAACGCTGACTCAGGTGCAGTTCTCGACTCGGTCTTGATGTGGGTCCTGTCCGTCCGAACCAATC
modifications: 5'-SH; 3'-methylene blue
Take B1: the binding result was “binds”.
